The source of these data is patent US8450067B2, “Method for obtaining anti-idiotype antibodies” (Omrix Biopharmaceuticals Inc., priority 2002, dated 2013).

Test [1] concerns the target synthetic cyclic peptide (1) KHETTET. In words: ELISA on coated Pep 1; control IgG 1 ug/ml.
Test [2] addresses synthetic cyclic peptide (9) GTTQWVL. In words: ELISA on coated Pep 9; control IgG 1 ug/ml.
Test [3] has as its target literature peptide …. In words: ELISA on coated Pep 4 (Table 3); control IgG 5 ug/ml.
Test [4] deals with literature peptide …. In words: ELISA on coated Pep 8 (Table 3); control IgG 5 ug/ml.
The target of test [5] is synthetic cyclic peptide (4) ASTIRAG. In words: ELISA on coated Pep 4; control IgG 1 ug/ml.
In test [6] the target is synthetic cyclic peptide (10) YGTPSSE. In words: ELISA on coated Pep 10; control IgG 1 ug/ml.
Test [7] concerns the target synthetic cyclic peptide (9) GTTQWVL. In words: ELISA on coated Pep 9; control IgG 5 ug/ml.
Test [8] concerns the target synthetic cyclic peptide (13) DWLYSRS. In words: ELISA on coated Pep 13; control IgG 1 ug/ml.
In test [9] the target is synthetic cyclic peptide (12) PLPDWRV. In words: ELISA on coated Pep 12; control IgG 1 ug/ml.
Test [10] addresses synthetic cyclic peptide (13) DWLYSRS. In words: ELISA on coated Pep 13; control IgG 5 ug/ml.
The target in test [11] is literature peptide …. In words: ELISA on coated Pep 4 (Table 3); control IgG 1 ug/ml.
Test [12] concerns the target literature peptide …. In words: ELISA on coated Pep 3 (Table 3); control IgG 5 ug/ml.
In test [13] the target is synthetic cyclic peptide (8) PPPDLHA. In words: ELISA on coated Pep 8; control IgG 1 ug/ml.
Test [14] has as its target literature peptide …. In words: ELISA on coated Pep 2 (Table 3); control IgG 1 ug/ml.
The target in test [15] is synthetic cyclic peptide (5) VRVLLRS. In words: ELISA on coated Pep 5; control IgG 1 ug/ml.
Test [16] has as its target synthetic cyclic peptide (10) YGTPSSE. In words: ELISA on coated Pep 10; control IgG 5 ug/ml.
Test [17] deals with synthetic cyclic peptide (3) AGLKNSQ. In words: ELISA on coated Pep 3; control IgG 1 ug/ml.
Test [18] has as its target synthetic cyclic peptide (2) PPNHSHL. In words: ELISA on coated Pep 2; control IgG 1 ug/ml.
Test [19] deals with synthetic cyclic peptide (15) KYKRKYP. In words: ELISA on coated Pep 15; control IgG 5 ug/ml.
Test [20] concerns the target synthetic cyclic peptide (1) KHETTET. In words: ELISA on coated Pep 1; control IgG 5 ug/ml.
Test [21] concerns the target literature peptide …. In words: ELISA on coated Pep 6 (Table 3); control IgG 1 ug/ml.
Test [22] concerns the target literature peptide …. In words: ELISA on coated Pep 9 (Table 3); control IgG 1 ug/ml.
Test [23] concerns the target synthetic cyclic peptide (5) VRVLLRS. In words: ELISA on coated Pep 5; control IgG 5 ug/ml.
Test [24] concerns the target synthetic cyclic peptide (7) LSQPERW. In words: ELISA on coated Pep 7; control IgG 1 ug/ml.
Test [25] addresses literature peptide …. In words: ELISA on coated Pep 6 (Table 3); control IgG 5 ug/ml.
Test [26] concerns the target synthetic cyclic peptide (6) TQPPELP. In words: ELISA on coated Pep 6; control IgG 5 ug/ml.
For test [27], the target named is synthetic cyclic peptide (14) PPQKHLL. In words: ELISA on coated Pep 14; control IgG 5 ug/ml.
Test [28] concerns the target synthetic cyclic peptide (4) ASTIRAG. In words: ELISA on coated Pep 4; control IgG 5 ug/ml.
The target in test [29] is synthetic cyclic peptide (8) PPPDLHA. In words: ELISA on coated Pep 8; control IgG 5 ug/ml.
Test [30] addresses literature peptide …. In words: ELISA on coated Pep 7 (Table 3); control IgG 1 ug/ml.
Test [31] deals with synthetic cyclic peptide (11) SLQRHPW. In words: ELISA on coated Pep 11; control IgG 5 ug/ml.
Test [32] has the same target. In words: ELISA on coated Pep 11; control IgG 1 ug/ml.
For test [33], the target named is synthetic cyclic peptide (15) KYKRKYP. In words: ELISA on coated Pep 15; control IgG 1 ug/ml.
Test [34] deals with synthetic cyclic peptide (3) AGLKNSQ. In words: ELISA on coated Pep 3; control IgG 5 ug/ml.
For test [35], the target named is literature peptide …. In words: ELISA on coated Pep 3 (Table 3); control IgG 1 ug/ml.
For test [36], the target named is literature peptide …. In words: ELISA on coated Pep 11 (Table 3); control IgG 1 ug/ml.
Test [37] addresses synthetic cyclic peptide (1) KHETTET. In words: ELISA on coated Pep 1 (Table 3); control IgG 1 ug/ml.
In test [38] the target is literature peptide …. In words: ELISA on coated Pep 7 (Table 3); control IgG 5 ug/ml.
Test [39] has as its target synthetic cyclic peptide (1) KHETTET. In words: ELISA on coated Pep 1 (Table 3); control IgG 5 ug/ml.
Test [40] addresses literature peptide …. In words: ELISA on coated Pep 10 (Table 3); control IgG 5 ug/ml.
In test [41] the target is synthetic cyclic peptide (2) PPNHSHL. In words: ELISA on coated Pep 2; control IgG 5 ug/ml.
In test [42] the target is literature peptide …. In words: ELISA on coated Pep 2 (Table 3); control IgG 5 ug/ml.
In test [43] the target is literature peptide …. In words: ELISA on coated Pep 10 (Table 3); control IgG 1 ug/ml.
Test [44] deals with synthetic cyclic peptide (12) PLPDWRV. In words: ELISA on coated Pep 12; control IgG 5 ug/ml.
For test [45], the target named is literature peptide …. In words: ELISA on coated Pep 8 (Table 3); control IgG 1 ug/ml.
Test [46] deals with synthetic cyclic peptide (14) PPQKHLL. In words: ELISA on coated Pep 14; control IgG 1 ug/ml.
Test [47] deals with synthetic cyclic peptide (6) TQPPELP. In words: ELISA on coated Pep 6; control IgG 1 ug/ml.
The target of test [48] is literature peptide …. In words: ELISA on coated Pep 5 (Table 3); control IgG 5 ug/ml.
The target of test [49] is literature peptide …. In words: ELISA on coated Pep 11 (Table 3); control IgG 5 ug/ml.
Test [50] has as its target literature peptide …. In words: ELISA on coated Pep 5 (Table 3); control IgG 1 ug/ml.
Test [51] addresses synthetic cyclic peptide (7) LSQPERW. In words: ELISA on coated Pep 7; control IgG 5 ug/ml.
In test [52] the target is literature peptide …. In words: ELISA on coated Pep 9 (Table 3); control IgG 5 ug/ml.
For test [53], the system named is anti-dsDNA antibody-positive SLE sera. Particulars: sera which cross react with ssDNA; cited from earlier work.
The test system of test [54] is immunoglobulin elution peak from a peptide column bound with peptide 707. In words: ELISA of peptide column eluate with biotinylated peptides (707 column). The format is binding, human. Particulars: FIG. 4; biotinylated peptide 1 μg/ml. As for the experimental part: (§1) To measure the binding efficacy of peptide column eluates (706 and 707) the following ELISA was performed:
(§2) Microtiter plates (Costar, USA) were coated overnight at 2-8° C. with 10 μg/ml NeutrAvidin (Pierce, USA) suspended in 0.1M, pH 8.8, of carbonate-bicarbonate buffer (Sigma USA). The coating solution was removed, washed three times with washing buffer (1×PBS) and 200 μl of blocking solution (freshly prepared 1% I Block, Tropix, USA) per well was added and incubated for 1 hour at 37° C. Coated and blocked plates can be stored at −20° C. for a month before use.
(§3) Tested samples diluted in the blocking solution were mixed in a separate tube with 1 μg/ml (final concentration) of the appropriate biotinylated peptide and the mixture was incubated for 1 hour at 37° C. 100 μl from each reaction tube was then transferred to the blocked microtiter plate and incubated at 37° C. for ½ hour. A 100 μl of 1:5000 Alkaline Phosphatase conjugate goat anti human IgG (Heavy and light chain from Jackson, USA) diluted in the blocking buffer was applied into the microtiter well and incubated for 1 hour. […] The measurement was done photometrically at 405 nm.

The test system of test [55] is immunoglobulin eluted from a peptide column bearing the peptide 706. In words: ELISA of peptide column eluate with biotinylated peptides (706 column). It counts as binding, human. Particulars: FIG. 3; biotinylated peptide 1 μg/ml. On the procedure: as §1, §2, §3
A further test deals with BALB/c neonatal mice. Particulars: BALB/c neonatal mice immunized later with pCDR1 or the pathogenic auto-Ab; cited from earlier work.
A further test deals with mice. Particulars: cited from earlier work.

With “IgG purified from one donor (negative control) (antibody)”, the OD at 405 nm in [1] stood at 0.013 OD; in test [2] it was 0.045 OD; in test [3], 0.039 OD; in [4], 0.041 OD; in [5] it was 0.013 OD; in test [6], 0.06 OD. The OD at 405 nm in [7] turned out to be 0.044 OD; in test [8], 0.069 OD; in test [9], 0.043 OD; in test [10], 0.078 OD; in test [11], 0.04 OD; in test [12], 0.043 OD. Further, the OD at 405 nm in test [13] was found to be 0.043 OD; in test [14], 0.04 OD; in test [15] it was 0.009 OD; in test [16], 0.048 OD; in [17] it was 0.011 OD; in test [18], 0.009 OD. In addition, the OD at 405 nm in [19] came to 0.068 OD; in test [20], 0.016 OD; in [21], 0.046 OD; in test [22], 0.044 OD; in test [23], 0.008 OD; in test [24], 0.045 OD. The OD at 405 nm stood at 0.043 OD in test [25]; 0.009 OD in test [26]; 0.083 OD in test [27]; 0.011 OD in test [28]; 0.046 OD in test [29]; 0.043 OD in [30]. In addition, the OD at 405 nm in test [31] was determined as 0.068 OD; in [32], 0.068 OD; in test [33], 0.037 OD; in [34], 0.011 OD; in [35] it was 0.043 OD; in [36], 0.043 OD. In addition, the OD at 405 nm stood at 0.044 OD in test [37]; 0.052 OD in test [38]; 0.043 OD in test [39]; 0.041 OD in test [40]; 0.009 OD in test [41]; 0.041 OD in test [42]. Also, the OD at 405 nm in test [43] was 0.042 OD; in test [44], 0.045 OD; in [45], 0.044 OD; in test [46] it was 0.079 OD; in [47] it was 0.007 OD; in [48] it was 0.048 OD. For the same substance, the OD at 405 nm came to 0.041 OD in test [49], 0.043 OD in [50], 0.048 OD in [51] and 0.045 OD in test [52].
As to “RLTSSLRYNP [synthetic peptide mimotope of dsDNA (Sun et al. 2001)]”, the “share of anti-dsDNA antibody-positive SLE sera that recognize the peptide” value in test [53] is given as 88%.
TGYYMQWVKQSPEKSLEWIG [Pep 706]: the “binding of 707 column eluate to biotinylated peptide” value in test [54] is listed as “reacted”. Further, the “binding of 706 column eluate to biotinylated peptide” value in [55] was “reacted specifically in a linear fashion”. Besides, the auto-Ab production entry in the test with BALB/c neonatal mice was “prevent auto-Ab production”. Besides, the “effect on disease in experimental SLE mice” value in the test with mice (experimental SLE mice) is “ameliorate the disease”. The “induction of SLE-like disease in mice” value in the test with mice (responder mice (BALB/c, SJL)) was “induced a mild SLE-like disease”.
